# Tests used:
# [1] = biological target: Ago2 wild type (Homo sapiens) (UniProt Q9UKV8); experiment: filter binding; conditions: 5'-phosphate on guide; target nt 9 (N) = inosine; Filter binding: 30 mM Tris pH 8.0, 0.1 M K acetate, 2 mM Mg acetate, 0.5 mM TCEP, 0.005% NP-40, 0.01 mg/ml yeast tRNA, room temp, 45 min, 0.1 nM target …
# [2] = biological target: hAgo2 (single-molecule) (Homo sapiens) (UniProt Q9UKV8); experiment: single-molecule FRET; conditions: 5'-phosphate on guide, C6-amino-U in guide (nt 9) and in target (opposite guide nt 17), Filter binding: 30 mM Tris pH 8.0, 0.1 M K acetate, 2 mM Mg acetate, 0.5 mM TCEP, 0.005% NP-40, 0.01 mg/ml yeast tRNA, room temp, 45 min, 0.1 nM target …
# Chain of hAgo2 (single-molecule) (Homo sapiens) (Q9UKV8 whole entry): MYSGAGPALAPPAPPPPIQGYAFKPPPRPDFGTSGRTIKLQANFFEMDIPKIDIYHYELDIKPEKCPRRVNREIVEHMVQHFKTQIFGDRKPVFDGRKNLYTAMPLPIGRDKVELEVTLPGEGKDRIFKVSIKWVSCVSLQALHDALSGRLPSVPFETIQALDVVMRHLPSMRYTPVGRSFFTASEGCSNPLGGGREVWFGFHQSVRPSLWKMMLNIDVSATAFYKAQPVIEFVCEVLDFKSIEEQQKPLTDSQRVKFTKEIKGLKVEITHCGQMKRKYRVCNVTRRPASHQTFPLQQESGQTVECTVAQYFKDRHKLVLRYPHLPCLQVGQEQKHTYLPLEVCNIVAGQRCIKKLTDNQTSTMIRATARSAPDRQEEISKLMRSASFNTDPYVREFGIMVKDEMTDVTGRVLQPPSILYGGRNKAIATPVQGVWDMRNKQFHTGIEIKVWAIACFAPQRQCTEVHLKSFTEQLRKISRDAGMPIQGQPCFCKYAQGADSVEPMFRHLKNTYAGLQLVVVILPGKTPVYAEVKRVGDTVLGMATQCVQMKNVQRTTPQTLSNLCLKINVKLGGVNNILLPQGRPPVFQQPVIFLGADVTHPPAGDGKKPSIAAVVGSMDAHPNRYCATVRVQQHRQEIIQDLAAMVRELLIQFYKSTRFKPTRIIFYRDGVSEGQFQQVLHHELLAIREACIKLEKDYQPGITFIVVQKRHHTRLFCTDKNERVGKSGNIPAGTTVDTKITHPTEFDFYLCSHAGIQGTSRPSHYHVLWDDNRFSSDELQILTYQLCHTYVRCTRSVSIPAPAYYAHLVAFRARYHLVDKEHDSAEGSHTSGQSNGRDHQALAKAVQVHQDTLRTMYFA
# Chain of Ago2 wild type (Homo sapiens) (Q9UKV8 whole entry): as above
sequence,measurement,setting,value
UUCACAUUGCCCAAGUCUCUU / CAAUGUGANAA [guide + t1I target],Kd,[1],1.7 nM
UGAGGUAUUUUUUUUUUUUUUU / UUUUUUUUUUUUUUUUUUUUUUUUUUUUUUUACUACCUCUUUUUUUUUUUUUUUUUUUUUUUUUUUUUU [smFRET guide + t1U target],binding signal,"[2]; dwell time, single exponential",1.64 s
UGAGGUAUUUUUUUUUUUUUUU / UUUUUUUUUUUUUUUUUUUUUUUUUUUUUUUACUACCUCAUUUUUUUUUUUUUUUUUUUUUUUUUUUUU [smFRET guide + t1DAP target],binding signal,"[2]; long dwell time (55.4%), short 1.97 ± 0.24 s (44.6%), target nt 40 = 2,6-diaminopurine (written A)",12.9 s
UGAGGUAUUUUUUUUUUUUUUU / UUUUUUUUUUUUUUUUUUUUUUUUUUUUUUUACUACCUCAUUUUUUUUUUUUUUUUUUUUUUUUUUUUU [smFRET guide + t1A target],binding signal,"[2]; long dwell time (50.2%), short 1.61 ± 0.29 s (49.8%)",8.69 s
